Data: IntAct's records for PubMed 17805301

B1: CREB-regulated transcription coactivator 2 (Mus musculus), Q3U182 (parent)
chain: MATSGANGPGSATASASNPRKFSEKIALQKQRQAEETAAFEEVMMDIGSTRLQAQKLRLAYTRSSHYGGSLPNVNQIGCGLAEFQSPLHSPLDSSRSTRHHGLVERVQRDARRMVSPLRRYPRHIDSSPYSPAYLSPPPESGWRRMMPWGNLPAEKGQLFRLPSALNRTSSDSALHTSVMNPNPQDTYPGPTPPSVLPSRRGGGFLDGEMDAKVPAIEENVVDDKHLLKPWDAKKLSSSSSRPRSCEVPGINIFPSPDQPANVPVLPPAMNTGGSLPDLTNLHFPPPLPTPLDPEETVYPSLSGGNSTTNLTHTMTHLGISGGLGLGPSYDVPGLHSPLSHPSLQSSLSNPNLQASLSSPQPQLQGSHSHPSLPASSLAHHALPTTSLGHPSLSAPALSSSSSSSSTSSPVLSAPPYPASTPGASPRHRRVPLSPLSLPAGPADARRSQQQLPKQFSPTMSPTLSSITQGVPLDTSKLPTDQRLPPYPYSPPSLVIPTHPPTPKSLQQLPSQACLVQPSGGQPPGRQPHYGALYPPGSSGHGQQPYHRPINDFSLGNLEQFNMESPSTSLVLDPPAFSEGPGFLGSEGSMSGPQDPHVLNHQNLTHCSRHGSGPNIILTGDSSPGFSKEIAAALAGVPGFEVSASGLELGLGLEDELRMEPLGLEGLTMLSDPCALLPDPAVEDSFRSDRLQ

Variants of: B1
Conditions: with cop1_mouse Cop1, Q9R1A8
Sequence of cop1_mouse Cop1, Q9R1A8 (Q9R1A8 whole entry): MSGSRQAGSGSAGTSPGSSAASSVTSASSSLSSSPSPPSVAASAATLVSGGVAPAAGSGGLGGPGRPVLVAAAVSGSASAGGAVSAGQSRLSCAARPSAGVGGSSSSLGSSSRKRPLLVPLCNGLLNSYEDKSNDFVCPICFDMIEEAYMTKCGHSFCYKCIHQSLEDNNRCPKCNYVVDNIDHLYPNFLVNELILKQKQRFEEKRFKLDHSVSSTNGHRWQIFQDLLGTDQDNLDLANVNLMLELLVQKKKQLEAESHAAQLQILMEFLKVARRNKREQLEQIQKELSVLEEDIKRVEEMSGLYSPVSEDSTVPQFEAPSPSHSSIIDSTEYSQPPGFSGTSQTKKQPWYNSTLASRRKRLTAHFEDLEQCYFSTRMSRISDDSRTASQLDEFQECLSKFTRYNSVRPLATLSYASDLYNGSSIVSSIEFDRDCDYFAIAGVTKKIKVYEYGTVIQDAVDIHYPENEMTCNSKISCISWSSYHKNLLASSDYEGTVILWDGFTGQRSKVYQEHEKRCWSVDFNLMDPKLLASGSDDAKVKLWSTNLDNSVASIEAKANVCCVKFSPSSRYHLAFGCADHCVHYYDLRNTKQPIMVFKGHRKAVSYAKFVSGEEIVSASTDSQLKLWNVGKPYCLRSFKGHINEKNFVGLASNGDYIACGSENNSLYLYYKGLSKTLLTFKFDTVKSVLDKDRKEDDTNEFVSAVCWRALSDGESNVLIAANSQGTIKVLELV

effect of a mutation on the interaction	Variant
disrupting interaction strength	V214A;P215A
